Results taken from article PMC9352680, “A comprehensive thermodynamic model for RNA binding by the Saccharomyces cerevisiae Pumilio protein PUF4”.
Numbering of substitutions follows the chain as printed. Names and notes keep the numbering of the source.

T1: PUF4 RNA-binding domain (Saccharomyces cerevisiae, UniProt P25339 537-888)
T1 sequence: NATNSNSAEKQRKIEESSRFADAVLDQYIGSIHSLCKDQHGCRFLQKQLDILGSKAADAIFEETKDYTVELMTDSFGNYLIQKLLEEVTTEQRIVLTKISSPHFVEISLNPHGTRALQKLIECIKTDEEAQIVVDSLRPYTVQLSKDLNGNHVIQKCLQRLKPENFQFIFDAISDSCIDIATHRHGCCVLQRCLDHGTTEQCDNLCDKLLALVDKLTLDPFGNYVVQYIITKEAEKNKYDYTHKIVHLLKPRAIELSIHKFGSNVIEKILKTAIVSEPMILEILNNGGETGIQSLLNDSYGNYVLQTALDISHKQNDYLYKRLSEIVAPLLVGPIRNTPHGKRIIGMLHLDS

B1: Ic_S2_P5E.1_K5.1_C5.1_H5.1_A5.1_[A7T]_F5.1_[T8C]_[T9A]_T5.1 (ssRNA)
RNA: UUUGAUUAAUAUGAUAUCGUUCUUUCUUGUAUUUCAAUUCUUUCUCGAUAUCAUAUUAAUCUUU
B2: Ic_S2_P5E.1_K5.1_C5.1_H5.1_A5.1_[A7G]_F5.1_[T8C]_[T9C]_T5.1 (ssRNA)
RNA: B1 RNA with U34G, A36C
B3: Ic_S2_P5E.1_K5.1_C5.1_H5.1_A5.1_[T5A]_[T6C]_[A7C]_F5.1_[T8C]_[T9A]_[A10T]_T5.1 (ssRNA)
RNA: B1 RNA with U32A, U33C, U34C, A37U
B4: Ic_S2_P5E.1_K5.1_C5.1_H5.1_A5.1_F5.1_[T8A]_[T9C]_[A10T]_T5.1 (ssRNA)
RNA: B1 RNA with U34A, C35A, A36C, A37U
B5: Ic_S2_P5E.1_K5.1_C5.1_H5.1_A5.1_[T5A]_[A7G]_F5.1_[T8G]_T5.1 (ssRNA)
RNA: B1 RNA with U32A, U34G, C35G, A36U
B6: Ic_S2_P5E.1_K5.1_C5.1_H5.1_A5.1_[T5A]_[T6C]_[A7C]_F5.1_[T9C]_[A10G]_T5.1 (ssRNA)
RNA: B1 RNA with U32A, U33C, U34C, C35U, A36C, A37G
B7: Ic_S2_P5E.1_K5.1_C5.1_H5.1_A5.1_[T6A]_[A7C]_F5.1_[T8C]_[T9A]_[A10C]_T5.1 (ssRNA)
RNA: B1 RNA with U33A, U34C, A37C
B8: Ic_S2_P5E.1_K5.1_C5.1_H5.1_A5.1_[T5C]_F5.1_[T9A]_[A10T]_T5.1 (ssRNA)
RNA: B1 RNA with U32C, U34A, C35U, A37U
B9: Ic_S2_P5E.1_K5.1_C5.1_H5.1_A5.1_[T5C]_[T6A]_[A7C]_F5.1_[T8C]_[T9C]_[A10C]_T5.1 (ssRNA)
RNA: B1 RNA with U32C, U33A, U34C, A36C, A37C
B10: Ic_S2_P5E.1_K5.1_C5.1_H5.1_A5.1_[T5C]_[T6C]_F5.1_[A10T]_T5.1 (ssRNA)
RNA: B1 RNA with U32C, U33C, U34A, C35U, A36U, A37U
B11: Ic_S2_P5E.1_K5.1_C5.1_H5.1_A5.1_[T5G]_[A7T]_F5.1_[T8G]_[T9C]_[A10T]_T5.1 (ssRNA)
RNA: B1 RNA with U32G, C35G, A36C, A37U
B12: Ic_S2_P5E.1_K5.1_C5.1_H5.1_A5.1_[T5C]_[A7T]_F5.1_[T8C]_[T9A]_[A10T]_T5.1 (ssRNA)
RNA: B1 RNA with U32C, A37U
B13: Ic_S2_P5E.1_K5.1_C5.1_H5.1_A5.1_[T5C]_[T6C]_F5.1_[T9C]_[A10T]_T5.1 (ssRNA)
RNA: B1 RNA with U32C, U33C, U34A, C35U, A36C, A37U
B14: Ic_S2_P5E.1_K5.1_C5.1_H5.1_A5.1_[T5C]_[T6C]_[A7T]_F5.1_[T9G]_[A10G]_T5.1 (ssRNA)
RNA: B1 RNA with U32C, U33C, C35U, A36G, A37G
B15: Ic_S2_P5E.1_K5.1_C5.1_H5.1_A5.1_[T6G]_[A7T]_F5.1_[T8A]_[T9C]_[A10T]_T5.1 (ssRNA)
RNA: B1 RNA with U33G, C35A, A36C, A37U
B16: Ic_S2_P5E.1_K5.1_C5.1_H5.1_A5.1_[T5C]_[T6A]_[A7C]_F5.1_[T9C]_T5.1 (ssRNA)
RNA: B1 RNA with U32C, U33A, U34C, C35U, A36C
B17: Ic_S2_P5E.1_K5.1_C5.1_H5.1_A5.1_[T5C]_[T6G]_[A7C]_F5.1_[T8C]_[T9C]_[A10C]_T5.1 (ssRNA)
RNA: B1 RNA with U32C, U33G, U34C, A36C, A37C
B18: Ic_S2_P5E.1_K5.1_C5.1_H5.1_A5.1_[T5C]_[T6A]_F5.1_[T9A]_T5.1 (ssRNA)
RNA: B1 RNA with U32C, U33A, U34A, C35U
B19: Ic_S2_P5E.1_K5.1_C5.1_H5.1_A5.1_[T5C]_[T6A]_[A7C]_F5.1_[T9C]_[A10C]_T5.1 (ssRNA)
RNA: B1 RNA with U32C, U33A, U34C, C35U, A36C, A37C
B20: Ic_S2_P5E.1_K5.1_C5.1_H5.1_A5.1_[T5A]_[T6C]_[A7C]_F5.1_[T8C]_[T9A]_T5.1 (ssRNA)
RNA: B1 RNA with U32A, U33C, U34C
B21: Ic_S2_P5E.1_K5.1_C5.1_H5.1_A5.1_[A7C]_F5.1_[T8G]_[T9G]_[A10T]_T5.1 (ssRNA)
RNA: B1 RNA with U34C, C35G, A36G, A37U
B22: Ic_S2_P5E.1_K5.1_C5.1_H5.1_A5.1_[T5C]_[T6A]_[A7C]_F5.1_[T8C]_[T9A]_[A10T]_T5.1 (ssRNA)
RNA: B1 RNA with U32C, U33A, U34C, A37U
B23: Ic_S2_P5E.1_K5.1_C5.1_H5.1_A5.1_[T6A]_[A7C]_F5.1_[T9A]_[A10C]_T5.1 (ssRNA)
RNA: B1 RNA with U33A, U34C, C35U, A37C
B24: Ic_S2_P5E.1_K5.1_C5.1_H5.1_A5.1_[T5A]_[A7C]_F5.1_[T9C]_[A10T]_T5.1 (ssRNA)
RNA: B1 RNA with U32A, U34C, C35U, A36C, A37U
B25: Ic_S2_P5E.1_K5.1_C5.1_H5.1_A5.1_[T5A]_[T6A]_[A7T]_F5.1_[T8C]_[A10T]_T5.1 (ssRNA)
RNA: B1 RNA with U32A, U33A, A36U, A37U
B26: Ic_S2_P5E.1_K5.1_C5.1_H5.1_A5.1_[T5A]_[T6A]_[A7C]_F5.1_[T9A]_T5.1 (ssRNA)
RNA: B1 RNA with U32A, U33A, U34C, C35U
B27: Ic_S2_P5E.1_K5.1_C5.1_H5.1_A5.1_[T5A]_[T6A]_[A7T]_F5.1_[T8A]_[T9A]_[A10C]_T5.1 (ssRNA)
RNA: B1 RNA with U32A, U33A, C35A, A37C
B28: Ic_S2_P5E.1_K5.1_C5.1_H5.1_A5.1_[T5G]_[A7C]_F5.1_[T9G]_[A10T]_T5.1 (ssRNA)
RNA: B1 RNA with U32G, U34C, C35U, A36G, A37U
B29: Ic_S2_P5E.1_K5.1_C5.1_H5.1_A5.1_[T5C]_[T6C]_F5.1_[T9A]_[A10C]_T5.1 (ssRNA)
RNA: B1 RNA with U32C, U33C, U34A, C35U, A37C
B30: Ic_S2_P5E.1_K5.1_C5.1_H5.1_A5.1_[T5C]_[T6A]_[A7C]_F5.1_[T8A]_[T9A]_T5.1 (ssRNA)
RNA: B1 RNA with U32C, U33A, U34C, C35A
B31: Ic_S2_P5E.1_K5.1_C5.1_H5.1_A5.1_[T5A]_[T6C]_[A7T]_F5.1_[T8G]_[T9C]_[A10T]_T5.1 (ssRNA)
RNA: B1 RNA with U32A, U33C, C35G, A36C, A37U
B32: Ic_S2_P5E.1_K5.1_C5.1_H5.1_A5.1_[T5C]_[T6C]_F5.1_[T8G]_[T9C]_[A10T]_T5.1 (ssRNA)
RNA: B1 RNA with U32C, U33C, U34A, C35G, A36C, A37U
B33: Ic_S2_P5E.1_K5.1_C5.1_H5.1_A5.1_[T6A]_[A7C]_F5.1_[T8G]_[T9G]_[A10T]_T5.1 (ssRNA)
RNA: B1 RNA with U33A, U34C, C35G, A36G, A37U
B34: Ic_S2_P5E.1_K5.1_C5.1_H5.1_A5.1_[A7T]_F5.1_[T8C]_[T9G]_[A10T]_T5.1 (ssRNA)
RNA: B1 RNA with A36G, A37U
B35: Ic_S2_P5E.1_K5.1_C5.1_H5.1_A5.1_[T5A]_[A7T]_F5.1_[T8G]_[T9C]_[A10C]_T5.1 (ssRNA)
RNA: B1 RNA with U32A, C35G, A36C, A37C
B36: Ic_S2_P5E.1_K5.1_C5.1_H5.1_A5.1_[T5A]_F5.1_[T9A]_[A10T]_T5.1 (ssRNA)
RNA: B1 RNA with U32A, U34A, C35U, A37U
B37: Ic_S2_P5E.1_K5.1_C5.1_H5.1_A5.1_[T5G]_[T6C]_[A7T]_F5.1_[T8A]_[A10T]_T5.1 (ssRNA)
RNA: B1 RNA with U32G, U33C, C35A, A36U, A37U
B38: Ic_S2_P5E.1_K5.1_C5.1_H5.1_A5.1_[T6C]_[A7T]_F5.1_[T8A]_[A10C]_T5.1 (ssRNA)
RNA: B1 RNA with U33C, C35A, A36U, A37C
B39: Ic_S2_P5E.1_K5.1_C5.1_H5.1_A5.1_[T5C]_[T6A]_F5.1_[A10C]_T5.1 (ssRNA)
RNA: B1 RNA with U32C, U33A, U34A, C35U, A36U, A37C
B40: Ic_S2_P5E.1_K5.1_C5.1_H5.1_A5.1_[T5A]_[T6A]_[A7T]_F5.1_[A10T]_T5.1 (ssRNA)
RNA: B1 RNA with U32A, U33A, C35U, A36U, A37U
B41: Ic_S2_P5E.1_K5.1_C5.1_H5.1_A5.1_[T5C]_[T6G]_[A7T]_F5.1_[T8G]_[T9G]_[A10T]_T5.1 (ssRNA)
RNA: B1 RNA with U32C, U33G, C35G, A36G, A37U

target: T1, PUF4 RNA-binding domain; experiment: Mg; RNA-MaP; 20 mM Na-HEPES pH 7.4, 30 mM KOAc, 0.75 mM MgCl2, 0.1% Tween-20, 5% glycerol, 0.1 mg/mL BSA, 2 mM DTT; 25 C; 0.0125-409.6 nM protein; settings: tags: N-His6-TEV cleaved; C-SNAP kept, Cy3B-labelled; label: tethered on chip by stalled RNA polymerase

Binder	Kd [nM]
B1	389
B2	497
B3	591
B4	558
B5	48.9
B6	563
B7	31.2
B8	0.408
B9	67.3
B10	2.17
B11	436
B12	80.5
B13	5.17
B14	210
B15	26.3
B16	7.78
B17	140
B18	0.983
B19	5.44
B20	> 2300
B21	475
B22	14.9
B23	1.15

Binder	Kd [nM]
B24	36.5
B25	76.2
B26	1.9
B27	30.3
B28	60.9
B29	1.13
B30	10.8
B31	189
B32	496
B33	571
B34	86.5
B35	622
B36	1.32
B37	43.1
B38	12.7
B39	6.33
B40	17.4
B41	211
UCUCUUUGUUUAUAAUCUCUU (ssRNA) [Ib_S1_P4E.1_K4.1_C4.1_H4.1_[A4T]_A4.1_F4.1_[T8A]_T4.1]	495
UCUCUUUGUGUAUAAUCUCUU (ssRNA) [Ib_S1_P4E.1_K4.1_C4.1_H4.1_[A4G]_A4.1_F4.1_[T8A]_T4.1]	11.4
UCUCUUUGUUUAUCAUCUCUU (ssRNA) [Ib_S1_P4E.1_K4.1_C4.1_H4.1_[A4T]_A4.1_F4.1_[T8C]_T4.1]	917
UCUCUUUGUCUAUAAUCUCUU (ssRNA) [Ib_S1_P4E.1_K4.1_C4.1_H4.1_[A4C]_A4.1_F4.1_[T8A]_T4.1]	1620
